Assays:
[1] = target: T1, LtrA, intron-encoded protein (IEP) of the Lactococcus lactis Ll.LtrB group II intron (Lactococcus lactis), P0A3U0; assay: AUC; sedimentation velocity of purified +A RNP at 7-14 ng/µl; 4°C; 28 000 rpm; 20 mM Tris pH 7.4, 200 mM KCl, 5 mM MgCl2; absorbance at 260 nm; SEDFIT; conditions: remark: other sources report otherwise
T1 chain: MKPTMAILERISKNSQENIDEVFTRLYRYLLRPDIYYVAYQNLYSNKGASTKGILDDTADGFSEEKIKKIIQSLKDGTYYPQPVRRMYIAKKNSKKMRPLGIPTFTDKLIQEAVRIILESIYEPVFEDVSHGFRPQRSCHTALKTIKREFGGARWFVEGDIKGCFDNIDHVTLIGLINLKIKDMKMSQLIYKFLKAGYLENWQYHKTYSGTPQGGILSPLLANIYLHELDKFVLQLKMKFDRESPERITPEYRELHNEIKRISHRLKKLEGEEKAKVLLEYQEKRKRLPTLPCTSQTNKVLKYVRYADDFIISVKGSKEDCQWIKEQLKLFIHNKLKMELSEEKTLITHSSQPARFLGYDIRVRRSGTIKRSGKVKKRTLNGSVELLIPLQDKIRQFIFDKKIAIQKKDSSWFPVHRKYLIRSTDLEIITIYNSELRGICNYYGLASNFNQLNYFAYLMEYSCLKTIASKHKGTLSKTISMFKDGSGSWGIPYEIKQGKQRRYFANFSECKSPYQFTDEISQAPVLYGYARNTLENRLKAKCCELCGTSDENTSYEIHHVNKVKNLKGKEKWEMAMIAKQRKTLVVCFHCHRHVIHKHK

[2] = target: T1, LtrA, intron-encoded protein (IEP) of …; assay: SEC-MALS; purified +A RNP (LtrA with 902 nt intron lariat RNA) on Superdex 200 10/300 GL; 20 mM Tris pH 7.4, 200 mM KCl, 5 mM MgCl2; room temperature; mass-averaged dn/dc 0.182 ml/g; conditions: remark: other sources report otherwise

stoichiometry N [1]: 2 | stoichiometry N [2]: 2
B1: LtrA, intron-encoded protein (IEP) of the Lactococcus lactis Ll.LtrB group II intron, P0A3U0 1-599 (natural protein)
chain: MKPTMAILERISKNSQENIDEVFTRLYRYLLRPDIYYVAYQNLYSNKGASTKGILDDTADGFSEEKIKKIIQSLKDGTYYPQPVRRMYIAKKNSKKMRPLGIPTFTDKLIQEAVRIILESIYEPVFEDVSHGFRPQRSCHTALKTIKREFGGARWFVEGDIKGCFDNIDHVTLIGLINLKIKDMKMSQLIYKFLKAGYLENWQYHKTYSGTPQGGILSPLLANIYLHELDKFVLQLKMKFDRESPERITPEYRELHNEIKRISHRLKKLEGEEKAKVLLEYQEKRKRLPTLPCTSQTNKVLKYVRYADDFIISVKGSKEDCQWIKEQLKLFIHNKLKMELSEEKTLITHSSQPARFLGYDIRVRRSGTIKRSGKVKKRTLNGSVELLIPLQDKIRQFIFDKKIAIQKKDSSWFPVHRKYLIRSTDLEIITIYNSELRGICNYYGLASNFNQLNYFAYLMEYSCLKTIASKHKGTLSKTISMFKDGSGSWGIPYEIKQGKQRRYFANFSECKSPYQFTDEISQAPVLYGYARNTLENRLKAKCCELCGTSDENTSYEIHHVNKVKNLKGKEKWEMAMIAKQRKTLVVCFHCHRHVIHKHK

— article PMC4005650
